The values below come from the nanobody polyreactivity screen of Harvey et al. (2022).

A short description of this data set: yeast display, Sf9 membrane polyspecificity reagent, FACS + sequencing; frameworks hold sequencing errors. The essentials:
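Genes from sorted yeast were amplified by colony PCR, read by MiSeq 2 × 250 sequencing and filtered on CDR length. These cells carried a synthetic nanobody library in Saccharomyces cerevisiae BJ5465 and were sorted by FACS into low and high (top ~1%) gates on anti-HA and streptavidin fluorescence. Polyreactivity is labelled according to the gate of origin.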
Take “QVQLVESGGGLVQAGGSLRLSCAASGSIFPVNAMGWYRQAPGKEREFVAAINVIGGSTYYADSVKGRFTISRDNAKNTVYLQMNSLKPEVTAVYYCAVEGYSILFGMDYLGQGTQVTVSS”: the “polyreactivity (PSR sort gate)” value is “low polyreactivity”. For “QVQLVESGGGLVQAGGSLRLSCAASGSIFPVNAMGWYRQAPGKERELVAAISEGSTSTYYADSVKGRFTISRDNAKNTVYLQMNSLKPEDTAVYYCAADYDTGYEYWGQGTQVTVSS”, the “polyreactivity (PSR sort gate)” value is “low polyreactivity”.

As to “QVQLVESGGGLVQAGGSLRLSCAASGSIFPVYTMGWYRQAPGKEREFVATITISGAITYYADSVKGRFTISRDNAKNTVYLQMTSLKPEDTAVYYCNTGPMYFPANDYWGQGTQVTVSS”, the “polyreactivity (PSR sort gate)” value is “low polyreactivity”. The value for “QVQLVESGGGLVQAGGSLRLSCAASGSIFPWNAMGWYRQAPGKERELVAGINESGGSTYYADSVKGRFTISRDNAKNTVYLQMNSLKPEDTAVYYCAADGYPSVGDDYWGQGTQVTVSS” was “low polyreactivity”; that for “QVQLVESGGGLVQAGGSLRLSCAASGSIFPWYAMGWYRQAPGKERELVAAITISGGSTHYADSVKGRFTISRDNAKNTVYLQMNRLKPEDTAVYYCATPRYPSYDYWGQGTQVTVSS” was “low polyreactivity”; that for “QVQLVESGGGLVQAGGSLRLSCAASGSIFPYNAMGWYRQAPGEFVAAISYSSGSTYYADSVKGRFTISRDNAKNTVYLQMNSLKPEDTAVYYCAAGSWYPPSYVWLGRYDYWGQGTQVTVSS” was “low polyreactivity”. The value for “QVQLVESGGGLVQAGGSLRLSCAASGSIFPYNDMGWYRQAPGKERELVAAISDSAGSTYYADSVKGRFTISRDNAKNTVYLQMNSLKPEYTAVYYCADYDYWGQGTQVTVSS” was “low polyreactivity”; that for “QVQLVESGGGLVQAGGSLRLSCAASGSIFPYNPMGWYRQAPGEFGAAISYSSGSTYYADSVKGRFTISRDNAKNTVYLQMNSLKPEDTAVYYCAAGLPKYEHEYWGQVTQVTVSS” was “low polyreactivity”; that for “QVQLVESGGGLVQAGGSLRLSCAASGSIFPYYAMGGYRQAAGKERELVATITSRGGSTDYADYVKGRFTISRDNAKNTVYLQMNSLKREDTAVYYCAKEYRYYRRRYDYWGQGTQVTVSS” was “high polyreactivity”. The value for “QVQLVESGGGLVQAGGSLRLSCAASGSIFPYYAMGWYRQAPGKERDLVAAISWSGTSTYYADSLKGRFTISRDNAKNTVYLQMNSLNPEDTAVYYCAASGVGTNHYGYWNESDYWGQGTQVTVSS” was “low polyreactivity”; that for “QVQLVESGGGLVQAGGSLRLSCAASGSIFPYYAMGWYRQAPGKERELVAAINWSGDSTYYADSVKGRFTISRDNAKNTVYLQMNSLKPEDTAVYYCAARSRWRYDYWGQGTQVTVSS” was “low polyreactivity”; that for “QVQLVESGGGLVQAGGSLRLSCAASGSIFPYYAMGWYRQAPGKERELVAAITWSGGGTYYADSVKGRFTISRDNAKNTGYLQMNSLKPEDTAVYYCAASYRYYWFDYWGQGTQVTVSS” was “high polyreactivity”. Consider “QVQLVESGGGLVQAGGSLRLSCAASGSIFPYYAMGWYRQAPGKERELVAGISRRGGTTYYADSVKGRFTISRDNAKNTVYLQMNSLKPEDTAVYYCAARYGPYVDRYGYWGQGTQVTVSS”, for which the “polyreactivity (PSR sort gate)” value is “high polyreactivity”. To “QVQLVESGGGLVQAGGSLRLSCAASGSIFPYYAMGWYRQAPGKERELVATISSGGSTFYADSVKGRFTISRDNAKKTVYLQMNSLKPEDTAVYYCAADIWYFDYDYWGQGTQVTVSS” belongs “high polyreactivity”. The value for “QVQLVESGGGLVQAGGSLRLSCAASGSIFPYYAMGWYRQAPGKERELVATITSRGGSTYYADSVKGRFTISRDNAKNTVYLQMNSLKPEDTAVYYCAKEYRYYRRRYDYWGQGTQVTVSS” was “high polyreactivity”; that for “QVQLVESGGGLVQAGGSLRLSCAASGSIFPYYDMGWYRQAPGKERELVAAITSSGSTFYADSVKGRFTISRDNAKNTVYLQMNSLKPEVTAVYSCNTRDIRVRPYDYWGQGTQVTVSS” was “low polyreactivity”. The value for “QVQLVESGGGLVQAGGSLRLSCAASGSIFQFNAMGWYIQAPGKERELVAAISRRTGSTYYADSVKGRFTISRDNAKNTVYLQMNSLKPEDTAVYYCAAKGYGSAPTYRHNYWGQGTQVTISS” was “high polyreactivity”.

For “QVQLVESGGGLVQAGGSLRLSCAASGSIFQFSAMGWYRQAPGKERPLVAAISDRGGSTYYADSVKGRFTISRDNAKNTVYLLMNSLKPEDTAVYYCAKGGEVSQGYTDEYDYWGQGTQVTVSS”, the “polyreactivity (PSR sort gate)” value was “low polyreactivity”. To “QVQLVESGGGLVQAGGSLRLSCAASGSIFQGNAKGGYRQAPGKERELVAGISDGGSTYYADSVKGRFTISRDNAKNTVYLQMNSLKPEDTAVYYCAAESEQWYSYVLSYDWEYDYWGQGTQVTVSS” belongs “low polyreactivity”; to “QVQLVESGGGLVQAGGSLRLSCAASGSIFQGYAMGWYRQAPGKERELVAAITASGGSTYYADSVKRRFTISRDNAKNTVYLQMNSLKPEDTAVYYCATDSYWRQDLYRYEYWGQGTQVTVSS”, “high polyreactivity”. The value for “QVQLVESGGGLVQAGGSLRLSCAASGSIFQGYAMGWYRQAPGKERELVARITSDDDSTYYADSVKGRFTISRDNAKITVYLQMNSLKPEDTAVYYCNADYYWTSLAMDSWGQGTKVTVSS” was “low polyreactivity”; that for “QVQLVESGGGLVQAGGSLRLSCAASGSIFQPYAMGWYRQAPGKERELVAAINGRGGSTHYADSVKGRFTISRDNAKNTVYLQMNSLKPEDTAVYYCAATWAYPGSGYVYFYGNDYWGQGTQVTVSS” was “high polyreactivity”; that for “QVQLVESGGGLVQAGGSLRLSCAASGSIFQPYAMGWYRQAPGKERELVAAISSSGGSTTYADSVKGRFTISRDNAKNTVYLQMNSLKPEDTAVYYCAAQYRYYPEAYGMGYWGQGTQVTVSS” was “low polyreactivity”.

In the case of “QVQLVESGGGLVQAGGSLRLSCAASGSIFQPYGMGWYRQAPGKERELVASIRGSAGSTHYADSVKGRFTISRDNAKYTVYLQMNSLKPEDTAVDYCAARAVASHFSPSLYGYWGHGTQVTVSS”, the “polyreactivity (PSR sort gate)” value is “high polyreactivity”.

As to “QVQLVESGGGLVQAGGSLRLSCAASGSIFQQYAMGWYRQAPGKERELVAAISWGDGSTYYADSVKGRFTISRDNAKNTVYLQKNSLKPEDTAVYYCNAYASAPLWSLEDDYWGQGTQVTVSS”, the “polyreactivity (PSR sort gate)” value is on record as “low polyreactivity”. The value for “QVQLVESGGGLVQAGGSLRLSCAASGSIFQQYAMGWYRQAPGKERELVAAITYSGDGTYYADSVKGRFTISRDNAKNTVYLQMNSLKPEDTAVYYCAAYPRDPYKEYDYWGQGNQVTVSS” was “low polyreactivity”.

Turning to “QVQLVESGGGLVQAGGSLRLSCAASGSIFQRYAMGWYRQAPGKERELVAAISGSGGRTYYADSVKGRFTISRDNAKNTVYLQMNSLKPEDTAVYYCAKDFRLRGGYDYWGQGTQVTVSS”, the “polyreactivity (PSR sort gate)” value is given as “high polyreactivity”. The value for “QVQLVESGGGLVQAGGSLRLSCAASGSIFQRYTMGWYRQAPGKERELVARISGRGGSTYYADSVKGRFTISRDNAKNTVYLQMNSMKPEDTAVYYCAADTGRYLDSNYWGQGTQVTVSS” was “high polyreactivity”; that for “QVQLVESGGGLVQAGGSLRLSCAASGSIFQSNAMGWYRQAPAKESELVAAISSSGGRTYYADSVKGRFTISRDNAKNTVYFQMNSLKPEDTAVYYCAALGYPDGGWGLGTQVTVSS” was “low polyreactivity”. To “QVQLVESGGGLVQAGGSLRLSCAASGSIFQSYAMGWYIQAPGKERELVAAISARGGTTNYADSVKGRFTISRDNAKNTVYLQMNSLKPEDTAVYYCAKVYRYGYSKYYYWGQGTQVTVSS” belongs “high polyreactivity”; to “QVQLVESGGGLVQAGGSLRLSCAASGSIFQVYAMGWYRQAPGKEREFVAAISYSGGGTYYADSVKGRFTISRDNAKNTVFLQMNSLKPEDTAVYYCAADVSGWEYDFWGLGTQVTVSS”, “low polyreactivity”. Regarding “QVQLVESGGGLVQAGGSLRLSCAASGSIFQWYAMGWYRQAPGQERELFAAITWSGDTTYYADSVKGRFTISRDNAKNTVYLQMNRLKPEDTAVYYCAADTQDRTYYGWRQVGGYDYWGQGTQVTVSS”, the “polyreactivity (PSR sort gate)” value is listed as “low polyreactivity”. The value for “QVQLVESGGGLVQAGGSLRLSCAASGSIFQYTMGWYRQAPGKERELVAAITRSGSSTYYADSVKGRFTISRDNAKNTVYLQMNSLKPEDTAVYSCAHTIRRVLGYGSWGQGTQVTVSS” was “high polyreactivity”. The value for “QVQLVESGGGLVQAGGSLRLSCAASGSIFQYYGMGWYRQAPGKERELVAAISRGGSTNYADSVKGRFTISRDNAKNTVYLQMNSLKPEDTAVYYCNARTYRKAYSGYNYWGQGTQVTVSS” was “high polyreactivity”. To “QVQLVESGGGLVQAGGSLRLSCAASGSIFQYYVMGWYRQAPGKERELVAAISQSGGRTYYADSVKGRFTISRDNAKNTFYLQMNSLKPEDTAVYYCAAYSRNAEYDYWGQGTQVTVSS” belongs “high polyreactivity”; to “QVQLVESGGGLVQAGGSLRLSCAASGSIFQYYVMGWYRQAQGKERELVAAISRGGGSTYYADSLKGRFTISRDNAKNTVYLQMNSMKPEDTAVYYCAKRTTRLAPYDYWGQGTQVTVSS”, “high polyreactivity”.

On to “QVQLVESGGGLVQAGGSLRLSCAASGSIFRENAMGWYRQAPGKERELVAAITDGGDRTYYADSVKGRFTISRDNAKNTVYLQMNSLKPEDTAVYYCAARWLYWPRYNSLVYTHRDSWGQGTQVTVSS”, for which the “polyreactivity (PSR sort gate)” value is recorded as “low polyreactivity”. To “QVQLVESGGGLVQAGGSLRLSCAASGSIFRFNAMGWYRQAPGKERELVAAITSRTYYADSVKGRFTISRDNAKNTVYLQMNSLKPEDTAVYYCAARVQSKYGYWGQGTQVTVSS” belongs “high polyreactivity”; to “QVQLVESGGGLVQAGGSLRLSCAASGSIFRFYPLGWYRQSPGKERELVAGITWSGASTYYADSVKGRFTISRDNAKNTVYLQMNSLKPEDTAVYYCAKLYRLDGFYYWGQGTQVTVSS”, “high polyreactivity”. The value for “QVQLVESGGGLVQAGGSLRLSCAASGSIFRGNAMGWYRQAPGKERELVAAISWSGASTYYADSVKGRFTISRDNAKNTVYLQMNSLKPEDTAVYYCAAVQWTGYPFDYWGQGTQVTVSS” was “high polyreactivity”; that for “QVQLVESGGGLVQAGGSLRLSCAASGSIFRGNAMGWYRQAPGKERELVAAITSRGTSTYYADSVKGRFTISRDNAKNTVYLQMNSLKREDTAVYYCAARGYYLYWGQGTQVTVSS” was “high polyreactivity”.
